{
  "source": "paper PMC2741138",
  "about": "(Journal of molecular biology, 2008)",
  "molecules": {"B1": {"name": "ASF(ΔRRM12)-His (domain or fragment)", "chain": "GPRSPSYGRSRSRSRSRSRSRSRSNSRSRSYSPRRSRGSPRYSPRHSRSRSRT"}, "B2": {"name": "ASF(RS12)-His (domain or fragment)", "chain": "PRSPSYGRSRSRSRSRSRSRSRSNSRSRSYSPRRSRGSPRYSPRHSRSRSRT"}, "B3": {"name": "ASF(ΔRRM1)-His (domain or fragment)", "chain": "GGAPRGRYGPPSRRSENRVVVSGLPPSGSWQDLKDHMREAGDVCYADVYRDGTGVVEFVRKEDMTYAVRKLDNTKFRSHEGETAYIRVKVDGPRSPSYGRSRSRSRSRSRSRSRSNSRSRSYSPRRSRGSPRYSPRHSRSRSRT"}, "B4": {"name": "ASF(RRM2) (domain or fragment)", "chain": "NRVVVSGLPPSGSWQDLKDHMREAGDVCYADVYRDGTGVVEFVRKEDMTYAVRKLDNTKFRSHEGETAYIRVKVDGPRSPSYG"}, "B5": {"name": "(RS)8 (peptide)", "chain": "RSRSRSRSRSRSRSRS", "modifications": "Expanded from the printed formula (RS)8; any flanking residues or end caps are not stated"}, "B6": {"name": "(RS)16 (peptide)", "chain": "RSRSRSRSRSRSRSRSRSRSRSRSRSRSRSRS", "modifications": "Expanded from the printed formula (RS)16; any flanking residues or end caps are not stated"}, "B7": {"name": "ASF(RRM1) (domain or fragment)", "chain": "MSGGGVIRGPAGNNDCRIYVGNLPPDIRTKDIEDVFYKYGAIRDIDLKNRRGGPPFAFVEFEDPRDAEDAVYGRDGYDYDGYRLRVEFPRS"}},
  "note": "“And” between values parts separate entries of the source, which are not always exact repeats. Identical values can stand only once.",
  "data": [
    {"target": "SRPK1 (UniProt Q96SB4)", "sequence (Q96SB4 whole entry)": "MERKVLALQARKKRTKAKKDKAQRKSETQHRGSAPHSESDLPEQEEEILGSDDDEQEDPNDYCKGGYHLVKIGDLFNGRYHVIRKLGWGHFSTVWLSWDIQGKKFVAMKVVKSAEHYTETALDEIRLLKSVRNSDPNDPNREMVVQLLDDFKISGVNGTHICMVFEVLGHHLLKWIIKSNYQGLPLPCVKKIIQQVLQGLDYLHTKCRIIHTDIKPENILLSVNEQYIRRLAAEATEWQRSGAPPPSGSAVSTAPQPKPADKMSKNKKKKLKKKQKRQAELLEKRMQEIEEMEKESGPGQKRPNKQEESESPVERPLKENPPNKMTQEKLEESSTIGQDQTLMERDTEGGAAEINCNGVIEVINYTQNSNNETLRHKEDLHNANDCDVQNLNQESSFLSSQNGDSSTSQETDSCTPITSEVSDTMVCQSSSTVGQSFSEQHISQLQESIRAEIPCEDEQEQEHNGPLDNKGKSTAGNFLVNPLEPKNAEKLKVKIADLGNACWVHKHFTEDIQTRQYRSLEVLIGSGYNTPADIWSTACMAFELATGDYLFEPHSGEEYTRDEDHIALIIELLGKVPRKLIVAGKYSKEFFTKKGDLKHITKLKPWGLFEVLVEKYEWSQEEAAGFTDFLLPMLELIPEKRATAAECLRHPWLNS", "assay": "kinase competition assay", "units": {"Ki": "µM"}, "values": [
      {"molecule": "Block 2/3 (from UniProt Q07955 1-248) (natural protein)", "Ki": 0.045},
      {"molecule": "ASF(ΔRS2) (domain or fragment)", "Ki": 0.17},
      {"molecule": "ASF(ΔRS) (domain or fragment)", "Ki": 0.18},
      {"molecule": "Block 3/4 (from UniProt Q07955 1-248) (natural protein)", "Ki": 0.12},
      {"molecule": "Block 1/2 (from UniProt Q07955 1-248) (natural protein)", "Ki": 0.04}
    ]},
    {"target": "T1, SRPK1 (UniProt Q96SB4 1-655)", "T1 sequence (Q96SB4 whole entry)": "as above", "assay": "kinase competition assay", "units": {"Ki": "µM"}, "values": [
      {"molecule": "B1", "Ki": "0.07 ± 0.015"},
      {"molecule": "B2", "Ki": "0.19 ± 0.013"},
      {"molecule": "B3", "Ki": "0.054 ± 0.005"}
    ]},
    {"target": "T1, SRPK1", "assay": "kinase competition assay", "remark": "another data set of the same source", "values": [
      {"molecule": "B4", "Ki": "6.3 ± 1.9 µM"},
      {"molecule": "B5", "Ki": "1.8 µM and 1.6 µM"},
      {"molecule": "B6", "Ki": "0.16 ± 0.041 µM"},
      {"molecule": "B7", "Ki": "1.6 ± 0.4 µM"}
    ]}
  ]
}
